This is an account of results in publication PMC10778174.

The target of the experiment is BG505-SOSIP trimer Env (subtype A) (HIV-1 (subtype A, BG505)). Description: SEC + other: negative-stain EM; gel-filtration and negative-stain EM of the purified BG505 SOSIP; conditions not given.

Usually stoichiometry N stands for the number of molecules, sites or subunits per partner or assembly. Regarding “BG505-SOSIP trimer Env (subtype A) (complex)”, the stoichiometry N stood at 3.
